The assay addresses SARS-CoV-2 B.1 (Wuhan) RBD. Briefly: BLI.

Results on 1 substance are retold here after publication PMC10636138.

The Kd is a measure of binding affinity in units of concentration.

Substance CR3022 gave a Kd of 22.1 nM. In other words, the double-digit nanomolar range.
